Assay results as given in patent publication US20220144890.

How the values were obtained:
[1] = target: H2 peptide derived from MAP1LC3C
[2] = target: H2 peptide derived from MAP1LC3B
[3] = target: H2 peptide derived from GBR
[4] = target: T1, H2 α-helical peptide derived from GBRL2 (GABARAPL2 alpha-helix 2 domain)
T1 chain: VAQFMWIIRKR

B1: recombinant ATG4B (protein)
chain: MDAATLTYDTLRFAEFEDFPETSEPVWILGRKYSIFTEKDEILSDVASRLWFTYRKNFPAIGGTGPTSDTGWGCMLRCGQMIFAQALVCRHLGRDWRWTQRKRQPDSYFSVLNAFIDRKDSYYSIHQIAQMGVGEGKSIGQWYGPNTVAQVLKKLAVFDTWSSLAVHIAMDNTVVMEEIRRLCRTSVPCAGATAFPADSDRHCNGFPAGAEVTNRPSPWRPLVLLIPLRLGLTDINEAYVETLKHCFMMPQSLGVIGGKPNSAHYFIGYVGEELIYLDPHTTQPAVEPTDGCFIPDESFHCQHPPCRMSIAELDPSIAVGFFCKTEDDFNDWCQQVKKLSLLGGALPMFELVELQPSHLACPDVLNLSLDSSDVERLERFFDSEDEDFEILSL
- ATG4B cleavage of chimeric Myc-GBRL2-S-tag substrate (blot) [1]: inhibited ATG4B cleavage activity in dose dependent manner
- ATG4B cleavage of chimeric Myc-GBRL2-S-tag substrate (blot) [2]: inhibited ATG4B cleavage activity in dose dependent manner, while H2 peptides derived from MAP1LC3B and GBRL2 had the strongest inhibition on ATG4B
- ATG4B cleavage of chimeric Myc-GBRL2-S-tag substrate (blot) [3]: inhibited ATG4B cleavage activity in dose dependent manner
- ATG4B cleavage of chimeric Myc-GBRL2-S-tag substrate (blot) [4]: inhibited ATG4B cleavage activity in dose dependent manner, while H2 peptides derived from MAP1LC3B and GBRL2 had the strongest inhibition on ATG4B
